Laboratory results as given in patent US20190389961A1 (INNATE PHARMA, published 2019).
Numbering of substitutions follows the chain as printed.

T1: human CD39 mutant 5 (human, UniProt P49961 1-510)
T1 construct: Expressed on Hek-293T cells; also called M5
T1 chain: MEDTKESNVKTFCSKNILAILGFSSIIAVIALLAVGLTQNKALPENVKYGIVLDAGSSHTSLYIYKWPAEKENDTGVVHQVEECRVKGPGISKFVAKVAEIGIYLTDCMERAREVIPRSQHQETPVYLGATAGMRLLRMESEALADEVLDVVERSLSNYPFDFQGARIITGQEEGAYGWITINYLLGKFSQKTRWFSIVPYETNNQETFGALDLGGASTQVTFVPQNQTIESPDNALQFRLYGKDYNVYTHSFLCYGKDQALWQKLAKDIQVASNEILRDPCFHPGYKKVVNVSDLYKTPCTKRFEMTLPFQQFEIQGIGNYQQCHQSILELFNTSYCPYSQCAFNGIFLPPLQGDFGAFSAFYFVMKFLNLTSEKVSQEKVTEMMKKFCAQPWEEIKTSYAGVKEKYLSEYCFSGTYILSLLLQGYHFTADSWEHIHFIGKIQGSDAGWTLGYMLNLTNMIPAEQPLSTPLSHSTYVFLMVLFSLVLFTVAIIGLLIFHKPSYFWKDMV

T2: human CD39 mutant 19 (human, UniProt P49961 1-510)
T2 construct: Expressed on Hek-293T cells; also called M19
T2 chain: T1 chain with A96Q, A99N, R138A, M139A, E142K, A143E, E147R

T3: human CD39 (vascular CD39, NTPDase1) expressed at the surface of cells (human, UniProt P49961 1-510)
T3 construct: also called huCD39; CHO-huCD39
T3 sequence: T1 chain with A96Q, A99N, A143E, E147R

T4: human CD39 mutant 15 (human, UniProt P49961 1-510)
T4 construct: Expressed on Hek-293T cells; also called M15
T4 chain: T1 chain with K87A, A96Q, A99N, E100A, D107A, A143E, E147R

T5: human CD39 mutant 11 (human, UniProt P49961 1-510)
T5 construct: Expressed on Hek-293T cells
T5 sequence: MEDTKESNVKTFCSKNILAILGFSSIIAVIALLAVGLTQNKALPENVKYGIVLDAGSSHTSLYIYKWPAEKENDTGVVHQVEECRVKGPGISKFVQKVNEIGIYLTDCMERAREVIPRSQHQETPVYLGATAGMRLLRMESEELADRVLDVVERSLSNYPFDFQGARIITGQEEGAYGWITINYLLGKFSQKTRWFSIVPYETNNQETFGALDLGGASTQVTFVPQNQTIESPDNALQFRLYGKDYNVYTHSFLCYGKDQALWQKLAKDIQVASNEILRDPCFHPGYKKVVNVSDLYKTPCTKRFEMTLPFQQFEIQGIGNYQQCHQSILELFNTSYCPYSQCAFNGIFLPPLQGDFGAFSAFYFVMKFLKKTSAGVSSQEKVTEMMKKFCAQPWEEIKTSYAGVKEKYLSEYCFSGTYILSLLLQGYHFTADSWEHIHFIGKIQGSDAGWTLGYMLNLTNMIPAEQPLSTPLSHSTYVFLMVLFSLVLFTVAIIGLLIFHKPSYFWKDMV

B1: antibody I-395 (antibody, V domains shown)
VH: EVQLQQSGPELVKPGASVRMSCKASGYTFTDYNMHWVKKNHGKGLEWIGYINPNNGGTTYNQKFKGKATLTVNTSSKTAYMELRSLTSEDSAVYYCTRGGTRFASWGQGTLVTVSA
VL: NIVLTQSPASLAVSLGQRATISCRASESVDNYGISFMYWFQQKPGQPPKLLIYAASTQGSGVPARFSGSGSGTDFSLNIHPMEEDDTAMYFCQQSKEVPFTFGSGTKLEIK
B2: antibody I-399 (antibody, V domains shown)
VH: PVQLQQPGAEVVMPGASVKLSCKASGYTFTSFWMNWMRQRPGQGLEWIGEIDPSDFYTNSNQRFKGKATLTVDKSSSTAYMQLSSLTSEDSAVYFCARGDFGWYFDVWGTGTSVTVSS
VL: EIVLTQSPTTMTSSPGEKITFTCSASSSINSNYLHWYQQKPGFSPKLLIYRTSNLASGVPTRFSGSGSGTSYSLTIGTMEAEDVATYYCQQGSSLPRTFGGGTKLEIK
B3: antibody I-396 (antibody, V domains shown)
VH: EVQLQQSGAELVKPGASVKLSCIVSGFNIKDTYINWVKQRPEQGLEWIGRIDPANGNTKYDPKFQGKATMTSDTSSNTAYLHLSSLTSDDSAVYYCARWGYDDEEADYFDSWGQGTTLTVSS
VL: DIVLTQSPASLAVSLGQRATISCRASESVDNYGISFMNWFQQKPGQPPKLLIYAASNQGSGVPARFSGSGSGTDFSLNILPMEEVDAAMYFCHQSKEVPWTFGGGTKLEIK

Tests used:
[1] = target: T1, human CD39 mutant 5; experiment: flow cytometry on Hek-293T cells expressing CD39 mutant 5 (panel M5)
Protocol: (§1) In order to define the epitopes of the further anti-CD39 antibodies of Example 5, they were tested for loss of binding to the panel of CD39 mutants as described in Example 1 and Table 1. Mutants were transfected in Hek-293T cells, as shown in the table 1, using numbering of SEQ ID NO: 1.Dose-ranges of test antibodies (10-2.5-0.625-0.1563-0.0391-0.0098-0.0024-0.0006 μg/ml) are tested on the 20 generated mutants by flow cytometry.

[2] = target: T2, human CD39 mutant 19; experiment: flow cytometry on Hek-293T cells expressing CD39 mutant 19 (panel M19)
Protocol: (§2) Mutants were transfected in Hek-293T cells, as shown in the table 1, using numbering of SEQ ID NO: 1. […] Mutant 19 includes substitutions at residues R138, M139 and E142.
as §1

[3] = target: T1, human CD39 mutant 5; experiment: flow cytometry on Hek-293T cells expressing CD39 mutant 5 (panel M5); unstained (US) median 8,98; antibody concentration not shown
Protocol: as §2, §1

[4] = target: T3, human CD39 (vascular CD39, NTPDase1) …; experiment: flow cytometry on Hek-293T cells expressing wild-type CD39 (panel WT); unstained (US) median 10,3; antibody concentration not shown
Protocol: as §2, §1

[5] = target: T4, human CD39 mutant 15; experiment: flow cytometry on Hek-293T cells expressing CD39 mutant 15 (panel M15); unstained (US) median 8,98; antibody concentration not shown
Protocol: as §2, §1

[6] = target: T2, human CD39 mutant 19; experiment: flow cytometry on Hek-293T cells expressing CD39 mutant 19 (panel M19); unstained (US) median 8,98; antibody concentration not shown
Protocol: as §2, §1

[7] = target: T1, human CD39 mutant 5; experiment: flow cytometry, Hek-293T cells expressing the mutant
Protocol: as §1

[8] = target: T5, human CD39 mutant 11; experiment: as above
Protocol: as §1

[9] = target: T4, human CD39 mutant 15; experiment: as above
Protocol: as §1

[10] = target: T2, human CD39 mutant 19; experiment: as above
Protocol: as §1

[11] = target: T4, human CD39 mutant 15; experiment: flow cytometry on Hek-293T cells expressing CD39 mutant 15 (panel M15)
Protocol: as §1

Row | Binder | binding result [1] | binding result [2] | Median : Comp-Alexa Fluor 647-A [3] | Median : Comp-Alexa Fluor 647-A [4] | Median : Comp-Alexa Fluor 647-A [5] | Median : Comp-Alexa Fluor 647-A [6] | binding result [7] | binding result [8] | binding result [9] | binding result [10] | binding result [11]
1 | B1 | no binding | no binding | 52.6 | 4240 | 5750 | 15.4 |  |  |  |  | 
2 | B2 |  |  |  |  |  |  | binds | no binding (tested: dose range up to 10 µg/ml) | binds | binds | 
3 | B3 |  |  | 8190 | 4340 | 35.9 | 8890 |  |  |  |  | no binding
